Experimental data taken from patent US12281340B2, “Method of producing N-acyl-amino group-containing compound” (AJINOMOTO CO., INC., priority 2018, dated 2025).

Legend:
[1] = Synthesis of N-caprinoylamino acid using purified acylamino acid synthetase, UPLC-MS detection; type: biochemical; set-up: key: +: Detected; −: Not detected; details: +ATP
Procedure: 2.0 mL of a reaction solution containing 50 mM Tris-HCl, 5 mM amino acid, 5 mM sodium caprate, 10 mM ATP, 10 mM MgCl2, 1 mM DTT, 50 μg of the purified enzyme, pH 8.0 was incubated at 25° C. for 24 hours. After completion of the reaction, 0.8 mL of a reaction stop solution (1% (v/v) phosphoric acid, 75% (v/v) methanol) was added, and the mixture was filtrated through a filter followed by being subjected to the UPLC-MS analysis to detect a signal of a molecular weight corresponding to an N-caprinoyl amino acid.
A UPLC-MS analysis condition is as follows.
Apparatus: ACQUITY UPLC (Waters)
• Column: ACQUITY UPLC BEH C18 1.7 2.1×100 mm Column (Waters) • Mobile phase A: 0.1% formic acid • Mobile phase B: acetonitrile Gradient
• Flow rate: 0.6 mL/min • Injection amount: 2 μL • Column temperature: 40° C. • Ionization method: ESI-negative
As a result of the UPLC-MS analysis, the signal of the molecular weight corresponding to the N-caprinoyl amino acid was confirmed in the reaction solution combining the enzyme and the amino acid shown in Table 3 below.

[2] = Synthesis of N-caprinoyl-amino acid derivative, N-caprinoyl-D-amino acid and N-caprinoyl-peptide using purified acylamino acid synthetase, UPLC-MS detection; type: biochemical; set-up: key: +: Detected; −: Not detected; details: +ATP
Procedure: 0.2 mL of a reaction solution containing 50 mM Tris-HCl, 5 mM amino acid derivative or D-amino acid or peptide, 5 mM sodium caprate, 10 mM ATP, 10 mM MgCl2, 1 mM DTT, 50 μg/mL of the purified enzyme, pH 8.0 was incubated at 25° C. for 24 hours. After completion of the reaction, 0.8 mL of the reaction stop solution (1% (v/v) phosphoric acid, 75% (v/v) methanol) was added, and the mixture was filtrated through the filter followed by being subjected to the UPLC-MS analysis to detect a signal of a molecular weight corresponding to an N-caprinoyl-amino acid derivative, an N-caprinoyl-amino acid or an N-caprinoyl-peptide. A condition for the UPLC-MS analysis is as described in Example 2.
As a result of the UPLC-MS analysis, the signal of the molecular weight corresponding to the N-caprinoyl-amino acid derivative, or N-caprinoyl-amino acid, or N-caprinoyl-peptide was confirmed in the reaction solution containing the enzyme in combination with the amino acid derivative or the D-amino acid or the peptide shown in Table 4 below.

[3] = substrates GABA and sodium caprate
[4] = substrates Gly and sodium caprate
[5] = substrates L-Ala and sodium caprate
[6] = substrates L-Arg and sodium caprate
[7] = substrates L-Asn and sodium caprate
[8] = substrates L-Asp and sodium caprate
[9] = substrates L-Cys and sodium caprate
[10] = substrates L-Gln and sodium caprate
[11] = substrates L-Glu and sodium caprate
[12] = substrates L-His and sodium caprate
[13] = substrates L-Ile and sodium caprate
[14] = substrates L-Leu and sodium caprate
[15] = substrates L-Lys and sodium caprate
[16] = substrates L-Met and sodium caprate
[17] = substrates L-Phe and sodium caprate
[18] = substrates L-Pro and sodium caprate
[19] = substrates L-Ser and sodium caprate
[20] = substrates L-Thr and sodium caprate
[21] = substrates L-Trp and sodium caprate
[22] = substrates L-Tyr and sodium caprate
[23] = substrates L-Val and sodium caprate
[24] = substrates β-Ala and sodium caprate
[25] = substrates Carnosine and sodium caprate
[26] = substrates D-Ala and sodium caprate
[27] = substrates D-Asp and sodium caprate
[28] = substrates D-Cys and sodium caprate
[29] = substrates D-Glu and sodium caprate
[30] = substrates D-Ile and sodium caprate
[31] = substrates D-Lys and sodium caprate
[32] = substrates L-Asp-L-Phe and sodium caprate
[33] = substrates L-Gly-L-Gly and sodium caprate
[34] = substrates Sarcosine and sodium caprate
[35] = substrates Taurine and sodium caprate

B1: PsIAAL: indoleacetate-lysine synthetase from Pseudomonas savastanoi (PaaK protein), His-tagged (protein, listed as Pseudomonas savastanoi)
chain: MTAYDMEKEWSRISITAAKIHQNNDFEGFTYQDFRTHVPIMDKDGFAAQTERCLERNERNCLIGFTSGTSGNIKRCYYYYDCEVDEDSSLSNVFRSNGFILPGDRCANLFTINLFSALNNTITMMAGNCGAHVVSVGDITLVTKSHFEALNSIKLNVLLGVPSTILQFINAMQHNGVHINIEKVVFTGESLKTFQKKIIRQAFGEQVSIVGVYGSSEGGILGFTNSPCHTEYEFLSDKYFIEKEGDSILITSLTRENFTPLLRYRLGDTATLSMKGDKLYLTDIQREDMSFNFMGNLIGLGIIQQTIKQTLGRSLEIQVHLSVTEERKELVTVFVQASEVDEDERVRIETAIADIPDIKEAYQKNQGTVSVLRKDARDYAVSERGKMLYIIDRRN
modifications: His-tag
notes: indoleacetate-lysine synthetase from Pseudomonas savastanoi (PaaK protein), His-tagged
+: signal of molecular weight corresponding to N-caprinoyl amino acid [1, 3] | signal of molecular weight corresponding to N-caprinoyl amino acid [1, 4] | signal of molecular weight corresponding to N-caprinoyl amino acid [1, 5] | signal of molecular weight corresponding to N-caprinoyl amino acid [1, 6] | signal of molecular weight corresponding to N-caprinoyl amino acid [1, 7] | signal of molecular weight corresponding to N-caprinoyl amino acid [1, 8] | signal of molecular weight corresponding to N-caprinoyl amino acid [1, 9] | signal of molecular weight corresponding to N-caprinoyl amino acid [1, 10] | signal of molecular weight corresponding to N-caprinoyl amino acid [1, 11] | signal of molecular weight corresponding to N-caprinoyl amino acid [1, 12] | signal of molecular weight corresponding to N-caprinoyl amino acid [1, 13] | signal of molecular weight corresponding to N-caprinoyl amino acid [1, 14] | signal of molecular weight corresponding to N-caprinoyl amino acid [1, 15] | signal of molecular weight corresponding to N-caprinoyl amino acid [1, 16] | signal of molecular weight corresponding to N-caprinoyl amino acid [1, 17] | signal of molecular weight corresponding to N-caprinoyl amino acid [1, 18] | signal of molecular weight corresponding to N-caprinoyl amino acid [1, 19] | signal of molecular weight corresponding to N-caprinoyl amino acid [1, 20] | signal of molecular weight corresponding to N-caprinoyl amino acid [1, 21] | signal of molecular weight corresponding to N-caprinoyl amino acid [1, 22] | signal of molecular weight corresponding to N-caprinoyl amino acid [1, 23] | signal of molecular weight corresponding to N-caprinoyl amino acid [1, 24] | signal of molecular weight corresponding to N-caprinoyl compound [2, 25] | signal of molecular weight corresponding to N-caprinoyl compound [2, 26] | signal of molecular weight corresponding to N-caprinoyl compound [2, 27] | signal of molecular weight corresponding to N-caprinoyl compound [2, 28] | signal of molecular weight corresponding to N-caprinoyl compound [2, 29] | signal of molecular weight corresponding to N-caprinoyl compound [2, 30] | signal of molecular weight corresponding to N-caprinoyl compound [2, 31] | signal of molecular weight corresponding to N-caprinoyl compound [2, 32] | signal of molecular weight corresponding to N-caprinoyl compound [2, 33] | signal of molecular weight corresponding to N-caprinoyl compound [2, 34] | signal of molecular weight corresponding to N-caprinoyl compound [2, 35]

B2: PaHP: hypothetical protein from Pantoea agglomerans (PaaK protein), His-tagged (protein)
chain: MRSYDHQPTFVEQHNRISIISGSTFRDYEHFARSVPISKLVRMHEVEGKQGDDSSANLPSLIGATSGTSGKMKPVRIQLKNGGCSVSASERNFIYHLRERRVFFPQDVVGNLFTINLFSTLHQSACDIVKYCQGSIVPVGDIALLTRDHFLFLQEVELSVLFGVPATIIQFVEAMLSNKVPIGIKKIVFTGETLRPSQAEWLRSRLGRTLSIVGLYGLSECGFLGLTDAQDCDEYTLFNDDFFFEQDPVHGLLVTSLDPSAKNRLIRYPTGDGVELTFHNKQLKMRIMARKDLLFNFVGNLISVESIAATVAESIPESFIQLVIRSEKGQQELLLVNVAGKNLQTQQLELIAQKLRARPELAEVYQKQRGRLEVHSVAENAFVLSARGKHQFVVDERE
modifications: His-tag; Pantoea agglomerans
notes: hypothetical protein from Pantoea agglomerans (PaaK protein), His-tagged
+: signal of molecular weight corresponding to N-caprinoyl amino acid [1, 3] | signal of molecular weight corresponding to N-caprinoyl amino acid [1, 4] | signal of molecular weight corresponding to N-caprinoyl amino acid [1, 5] | signal of molecular weight corresponding to N-caprinoyl amino acid [1, 6] | signal of molecular weight corresponding to N-caprinoyl amino acid [1, 7] | signal of molecular weight corresponding to N-caprinoyl amino acid [1, 8] | signal of molecular weight corresponding to N-caprinoyl amino acid [1, 9] | signal of molecular weight corresponding to N-caprinoyl amino acid [1, 10] | signal of molecular weight corresponding to N-caprinoyl amino acid [1, 11] | signal of molecular weight corresponding to N-caprinoyl amino acid [1, 13] | signal of molecular weight corresponding to N-caprinoyl amino acid [1, 14] | signal of molecular weight corresponding to N-caprinoyl amino acid [1, 15] | signal of molecular weight corresponding to N-caprinoyl amino acid [1, 16] | signal of molecular weight corresponding to N-caprinoyl amino acid [1, 17] | signal of molecular weight corresponding to N-caprinoyl amino acid [1, 19] | signal of molecular weight corresponding to N-caprinoyl amino acid [1, 20] | signal of molecular weight corresponding to N-caprinoyl amino acid [1, 21] | signal of molecular weight corresponding to N-caprinoyl amino acid [1, 22] | signal of molecular weight corresponding to N-caprinoyl amino acid [1, 23] | signal of molecular weight corresponding to N-caprinoyl amino acid [1, 24] | signal of molecular weight corresponding to N-caprinoyl compound [2, 25] | signal of molecular weight corresponding to N-caprinoyl compound [2, 26] | signal of molecular weight corresponding to N-caprinoyl compound [2, 27] | signal of molecular weight corresponding to N-caprinoyl compound [2, 28] | signal of molecular weight corresponding to N-caprinoyl compound [2, 29] | signal of molecular weight corresponding to N-caprinoyl compound [2, 30] | signal of molecular weight corresponding to N-caprinoyl compound [2, 31] | signal of molecular weight corresponding to N-caprinoyl compound [2, 33] | signal of molecular weight corresponding to N-caprinoyl compound [2, 35]
−: signal of molecular weight corresponding to N-caprinoyl amino acid [1, 12] | signal of molecular weight corresponding to N-caprinoyl amino acid [1, 18] | signal of molecular weight corresponding to N-caprinoyl compound [2, 32] | signal of molecular weight corresponding to N-caprinoyl compound [2, 34]
